The results in this text go back to the supplement of paper PMC5998384.

In series [1] the test system is HeLa Kyoto. Description: solubility in G1/S (NP-40 vs SDS abundance) (log2 ratio); higher = more soluble. The settings on record: cell cycle stage: G1/S.
The test system of series [2] is HeLa Kyoto. Nature of the series: solubility change mitosis vs G1/S (difference of NP-40 vs SDS log2 ratios) (log2 ratio difference); higher = more soluble in mitosis.
The test system of series [3] is HeLa Kyoto. Nature of the series: melting temperature (median over replicates), in situ; higher = more thermally stable.
For series [4], the system named is HeLa Kyoto. Description: thermal stability score vs G1/S (z-score of summed log2 fold changes over temperatures); higher = more thermally stable than in G1/S.
The mark [5] stands for this setting: cell cycle stage: early G1 (4.5 h after nocodazole release).
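Throughout, for melting temperature (median over replicates), in situ: HeLa Kyoto cells synchronized by double thymidine or nocodazole block, proteins quantified by TMT10plex mass spectrometry, three independent biological replicates.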
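Throughout, for solubility change mitosis vs G1/S (difference of NP-40 vs SDS log2 ratios): synchronized HeLa Kyoto cells (double thymidine block for G1/S, nocodazole release for mitosis), protein amounts in NP-40 versus SDS lysates quantified by mass spectrometry, three biological replicates.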
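Throughout, for solubility in G1/S (NP-40 vs SDS abundance): HeLa Kyoto cells arrested at G1/S by double thymidine block, proteins quantified by TMT10plex mass spectrometry in mild NP-40 versus SDS extracts, three biological replicates.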
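Throughout, for thermal stability score vs G1/S (z-score of summed log2 fold changes over temperatures): synchronized HeLa Kyoto cells, proteins quantified by TMT10plex mass spectrometry, three biological replicates, mitosis taken 0.5 h after nocodazole release, G1/S directly after double thymidine block.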

PPIC, sequence (chain, as listed by the source): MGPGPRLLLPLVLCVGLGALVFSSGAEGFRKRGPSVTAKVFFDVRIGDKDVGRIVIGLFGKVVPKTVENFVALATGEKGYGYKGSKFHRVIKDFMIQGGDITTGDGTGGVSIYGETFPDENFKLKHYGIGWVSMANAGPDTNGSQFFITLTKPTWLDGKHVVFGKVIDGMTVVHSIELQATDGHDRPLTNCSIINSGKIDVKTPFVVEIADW

As to “MDGDGDPESVGQPEEASPEEQPEEASAEEERPEDQQEEEAAAAAAYLDELPEPLLLRVLAALPAAELVQACRLVCLRWKELVDGAPLWLLKCQQEGLVPEGGVEEERDHWQQFYFLSKRRRNLLRNPCGEEDLEGWCDVEHGGDGWRVEELPGDSGVEFTHDESVKKYFASSFEWCRKAQVIDLQAEGYWEELLDTTQPAIVVKDWYSGRSDAGCLYELTVKLLSEHENVLAEFSSGQVAVPQDSDGGGWMEISHTFTDYGPGVRFVRFEHGGQDSVYWKGWFGARVTNSSVWVEP [FBXO2]”, the “solubility in G1/S (log2)” value in the series on HeLa Kyoto [1] is -0.047. Also, the “solubility change mitosis (log2)” value in the series on HeLa Kyoto [2] was -0.206. The melting temperature is 51.9 °C with HeLa Kyoto [3] (cell cycle stage: G1/S) and 50.8 °C with HeLa Kyoto [3] (cell cycle stage: mitosis). Moreover, the thermal stability score in the series on HeLa Kyoto [4] (setting [5]) was 0.487; with HeLa Kyoto [4] (cell cycle stage: mitosis), -0.484.
Take “MKMADAKQKRNEQLKRWIGSETDLEPPVVKRQKTKVKFDDGAVFLAACSSGDTDEVLKLLHRGADINYANVDGLTALHQACIDDNVDMVKFLVENGANINQPDNEGWIPLHAAASCGYLDIAEFLIGQGAHVGAVNSEGDTPLDIAEEEAMEELLQNEVNRQGVDIEAARKEEERIMLRDARQWLNSGHINDVRHAKSGGTALHVAAAKGYTEVLKLLIQAGYDVNIKDYDGWTPLHAAAHWGKEEACRILVDNLCDMEMVNKVGQTAFDVADEDILGYLEELQKKQNLLHSEKRDKKSPLIESTANMDNNQSQKTFKNKETLIIEPEKNASRIESLEQEKVDEEEEGKKDESSCSSEEDEEDDSESEAETDKTKPLASVTNANTSSTQAAPVAVTTPTVSSGQATPTSPIKKFPTTATKISPKEEERKDESPATWRLGLRKTGSYGALAEITASKEGQKEKDTAGVTRSASSPRLSSSLDNKEKEKDSKGTRLAYVAPTIPRRLASTSDIEEKENRDSSSLRTSSSYTRRKWEDDLKKNSSVNEGSTYHKSCSFGRRQDDLISSSVPSTTSTPTVTSAAGLQKSLLSSTSTTTKITTGSSSAGTQSSTSNRLWAEDSTEKEKDSVPTAVTIPVAPTVVNAAASTTTLTTTTAGTVSSTTEVRERRRSYLTPVRDEESESQRKARSRQARQSRRSTQGVTLTDLQEAEKTIGRSRSTRTREQENEEKEKEEKEKQDKEKQEEKKESETSREDEYKQKYSRTYDETYQRYRPVSTSSSTTPSSSLSTMSSSLYASSQLNRPNSLVGITSAYSRGITKENEREGEKREEEKEGEDKSQPKSIRERRRPREKRRSTGVSFWTQDSDENEQEQQSDTEEGSNKKETQTDSISRYETSSTSAGDRYDSLLGRSGSYSYLEERKPYSSRLEKDDSTDFKKLYEQILAENEKLKAQLHDTNMELTDLKLQLEKATQRQERFADRSLLEMEKRERRALERRISEMEEELKMLPDLKADNQRLKDENGALIRVISKLSK [PPP1R12A]”: in the series on HeLa Kyoto [1], the “solubility in G1/S (log2)” value was -0.42. Also, the “solubility change mitosis (log2)” value in the series on HeLa Kyoto [2] amounted to 0.0601. In addition, the melting temperature with HeLa Kyoto [3] (cell cycle stage: G1/S) worked out at 50.4 °C; in the series on HeLa Kyoto [3] (cell cycle stage: mitosis) it was 50.2 °C. In addition, the thermal stability score in the series on HeLa Kyoto [4] (setting [5]) was -1.62; in the series with HeLa Kyoto [4] (cell cycle stage: mitosis), -0.382.
“MSGTNLDGNDEFDEQLRMQELYGDGKDGDTQTDAGGEPDSLGQQPTDTPYEWDLDKKAWFPKITEDFIATYQANYGFSNDGASSSTANVEDVHARTAEEPPQEKAPEPTDARKKGEKRKAESGWFHVEEDRNTNVYVSGLPPDITVDEFIQLMSKFGIIMRDPQTEEFKVKLYKDNQGNLKGDGLCCYLKRESVELALKLLDEDEIRGYKLHVEVAKFQLKGEYDASKKKKKCKDYKKKLSMQQKQLDWRPERRAGPSRMRHERVVIIKNMFHPMDFEDDPLVLNEIREDLRVECSKFGQIRKLLLFDRHPDGVASVSFRDPEEADYCIQTLDGRWFGGRQITAQAWDGTTDYQVEETSREREERLRGWEAFLNAPEANRGLRRSDSVSASERAGPSRARHFSEHPSTSKMNAQETATGMAFEEPIDEKKFEKTEDGGEFEEGASENNAKESSPEKEAEEGCPEKESEEGCPKRGFEGSCSQKESEEGNPVRGSEEDSPKKESKKKTLKNDCEENGLAKESEDDLNKESEEEVGPTKESEEDDSEKESDEDCSEKQSEDGSEREFEENGLEKDLDEEGSEKELHENVLDKELEENDSENSEFEDDGSEKVLDEEGSEREFDEDSDEKEEEEDTYEKVFDDESDEKEDEEYADEKGLEAADKKAEEGDADEKLFEESDDKEDEDADGKEVEDADEKLFEDDDSNEKLFDEEEDSSEKLFDDSDERGTLGGFGSVEEGPLSTGSSFILSSDDDDDDI [HTATSF1]”: the “solubility in G1/S (log2)” value with HeLa Kyoto [1] was -0.256. Also, the “solubility change mitosis (log2)” value in the series on HeLa Kyoto [2] was -0.0715. Also, the melting temperature in the series on HeLa Kyoto [3] (cell cycle stage: G1/S) was 47.4 °C; in the series on HeLa Kyoto [3] (cell cycle stage: mitosis), 49.4 °C. Also, the thermal stability score in the series with HeLa Kyoto [4] (setting [5]) is 5.21; in the series with HeLa Kyoto [4] (cell cycle stage: mitosis) it was 9.34.
On to PPIC, for which the “solubility in G1/S (log2)” value in the series with HeLa Kyoto [1] was determined as 0.0897. Moreover, the “solubility change mitosis (log2)” value in the series on HeLa Kyoto [2] was -0.103. Further, the melting temperature is 53.6 °C with HeLa Kyoto [3] (cell cycle stage: G1/S) and 53.4 °C with HeLa Kyoto [3] (cell cycle stage: mitosis). The thermal stability score with HeLa Kyoto [4] (setting [5]) is 1.01; in the series on HeLa Kyoto [4] (cell cycle stage: mitosis), -0.315.
For “MADLLGSILSSMEKPPSLGDQETRRKAREQAARLKKLQEQEKQQKVEFRKRMEKEVSDFIQDSGQIKKKFQPMNKIERSILHDVVEVAGLTSFSFGEDDDCRYVMIFKKEFAPSDEELDSYRRGEEWDPQKAEEKRKLKELAQRQEEEAAQQGPVVVSPASDYKDKYSHLIGKGAAKDAAHMLQANKTYGCVPVANKRDTRSIEEAMNEIRAKKRLRQSGEELPPTS [SPAG7]”, in the series with HeLa Kyoto [1], the “solubility in G1/S (log2)” value was determined as 0.68. Besides, the “solubility change mitosis (log2)” value in the series on HeLa Kyoto [2] was -0.0144. The melting temperature in the series with HeLa Kyoto [3] (cell cycle stage: G1/S) turned out to be 53.1 °C; with HeLa Kyoto [3] (cell cycle stage: mitosis) it was 55 °C. Moreover, the thermal stability score with HeLa Kyoto [4] (setting [5]) was -1.04; in the series with HeLa Kyoto [4] (cell cycle stage: mitosis), -1.5.
As to ERH, in the series with HeLa Kyoto [1], the “solubility in G1/S (log2)” value was -2.12. Moreover, in the series with HeLa Kyoto [2], the “solubility change mitosis (log2)” value is 0.912. The melting temperature with HeLa Kyoto [3] (cell cycle stage: G1/S) turned out to be 52.5 °C; in the series with HeLa Kyoto [3] (cell cycle stage: mitosis), 51.6 °C. Besides, the thermal stability score is -4.51 with HeLa Kyoto [4] (setting [5]) and -3.17 in the series with HeLa Kyoto [4] (cell cycle stage: mitosis).
